US20140105889A1 (published 2014)

target: T1, human FcγRIIIa(F) (human, UniProt P08637 17-208, limits assumed); test: SPR (Biacore), captured antibody, FcγR analyte; bound amount relative to GpH7-B3/GpL16-k0 x100;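 note: receptor response divided by the antibody amount captured on the chip before comparison with the reference antibody, measured at 25 °C in HBS-EP+ running buffer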
T1 construct: also called FcgRIIIaF; FcγRIIIa allotype F158
T1 sequence (P08637 other isoform, or with tags, fused parts or gaps limits assumed): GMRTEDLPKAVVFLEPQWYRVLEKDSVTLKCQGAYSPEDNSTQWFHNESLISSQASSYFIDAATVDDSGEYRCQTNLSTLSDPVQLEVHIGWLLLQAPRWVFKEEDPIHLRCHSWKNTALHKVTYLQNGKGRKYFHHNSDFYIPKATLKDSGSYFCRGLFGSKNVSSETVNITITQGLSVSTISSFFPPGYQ
Procedure: Interaction between each modified antibody and Fcγ receptor prepared in the manner described above was analyzed using the Biacore T100 (GE Healthcare), Biacore T200 (GE Healthcare), Biacore A100 or Biacore 4000. HBS-EP+ (GE Healthcare) was used for the running buffer, and measurements were carried out at 25° C. The chips used were chips in which antigen peptides, Protein A (Thermo Scientific), Protein A/G (Thermo Scientific) or Protein L (ACTIGEN or BioVision) were immobilized on the Series S Sensor Chip CM5 (GE Healthcare) or Series S Sensor Chip CM4 (GE Healthcare) by amine coupling, or chips in which preliminarily biotinylated antigen peptides were allowed to interact and then immobilized on the Series S Sensor Chip SA (certified) (GE Healthcare). The target antibodies were captured on these sensor chips, Fcγ receptor diluted with the running buffer was allowed to interact, followed by measurement of the amount of bound antibody. The amounts bound were compared between antibodies. However, since the amount of Fcγ receptor bound depends on the amount of captured antibody, the values used for comparison were first corrected by dividing the amount of Fcγ receptor bound by the captured amount of each antibody. Through reaction with 10 mM glycine-HCl at pH 1.5, the sensor chips were regenerated by washing off antibody captured on the sensor chips and used repeatedly.
Binding strength was evaluated according to the following method based on the results of analyzing the interaction with each FcγR. […] That value was then further multiplied by 100, and the resulting value was used as an indicator of relative binding activity to each FcγR.

Binder	relative binding activity
GpH7-B3/GpL16-k0 with L328P introduced into GpH7-B3 (antibody, human IgG1, Anti-glypican-3 human IgG1; constant region B3 (G1d with K439E); Fc variant; also called B3 variant; copies: 2 + 2) heavy: not shown light: DIVMTQSPLSLPVTPGEPASISCQASESLVHSNRNTYLHWYLQKPGQSPQLLIYKVSNRFSGVPDRFSGSGSGTDFTLKISRVEAEDVGVYYCSQNTHVPPTFGQGTKVEIE	3 % of GpH7-B3/GpL16-k0
GpH7-B3/GpL16-k0 with L328R introduced into GpH7-B3 (antibody, human IgG1, Anti-glypican-3 human IgG1; constant region B3 (G1d with K439E); Fc variant; also called B3 variant; copies: 2 + 2) heavy: not shown light: DIVMTQSPLSLPVTPGEPASISCQASESLVHSNRNTYLHWYLQKPGQSPQLLIYKVSNRFSGVPDRFSGSGSGTDFTLKISRVEAEDVGVYYCSQNTHVPPTFGQGTKVEIE	-1 % of GpH7-B3/GpL16-k0
GpH7-B3/GpL16-k0 with N325A introduced into GpH7-B3 (antibody, human IgG1, Anti-glypican-3 human IgG1; constant region B3 (G1d with K439E); Fc variant; also called B3 variant; copies: 2 + 2) heavy: not shown light: DIVMTQSPLSLPVTPGEPASISCQASESLVHSNRNTYLHWYLQKPGQSPQLLIYKVSNRFSGVPDRFSGSGSGTDFTLKISRVEAEDVGVYYCSQNTHVPPTFGQGTKVEIE	6 % of GpH7-B3/GpL16-k0
GpH7-B3/GpL16-k0 with N325F introduced into GpH7-B3 (antibody, human IgG1, Anti-glypican-3 human IgG1; constant region B3 (G1d with K439E); Fc variant; also called B3 variant; copies: 2 + 2) heavy: not shown light: DIVMTQSPLSLPVTPGEPASISCQASESLVHSNRNTYLHWYLQKPGQSPQLLIYKVSNRFSGVPDRFSGSGSGTDFTLKISRVEAEDVGVYYCSQNTHVPPTFGQGTKVEIE	-1 % of GpH7-B3/GpL16-k0
GpH7-B3/GpL16-k0 with N325G introduced into GpH7-B3 (antibody, human IgG1, Anti-glypican-3 human IgG1; constant region B3 (G1d with K439E); Fc variant; also called B3 variant; copies: 2 + 2) heavy: not shown light: DIVMTQSPLSLPVTPGEPASISCQASESLVHSNRNTYLHWYLQKPGQSPQLLIYKVSNRFSGVPDRFSGSGSGTDFTLKISRVEAEDVGVYYCSQNTHVPPTFGQGTKVEIE	1 % of GpH7-B3/GpL16-k0
GpH7-B3/GpL16-k0 with N325H introduced into GpH7-B3 (antibody, human IgG1, Anti-glypican-3 human IgG1; constant region B3 (G1d with K439E); Fc variant; also called B3 variant; copies: 2 + 2) heavy: not shown light: DIVMTQSPLSLPVTPGEPASISCQASESLVHSNRNTYLHWYLQKPGQSPQLLIYKVSNRFSGVPDRFSGSGSGTDFTLKISRVEAEDVGVYYCSQNTHVPPTFGQGTKVEIE	37 % of GpH7-B3/GpL16-k0
GpH7-B3/GpL16-k0 with N325I introduced into GpH7-B3 (antibody, human IgG1, Anti-glypican-3 human IgG1; constant region B3 (G1d with K439E); Fc variant; also called B3 variant; copies: 2 + 2) heavy: not shown light: DIVMTQSPLSLPVTPGEPASISCQASESLVHSNRNTYLHWYLQKPGQSPQLLIYKVSNRFSGVPDRFSGSGSGTDFTLKISRVEAEDVGVYYCSQNTHVPPTFGQGTKVEIE	1 % of GpH7-B3/GpL16-k0
GpH7-B3/GpL16-k0 with N325K introduced into GpH7-B3 (antibody, human IgG1, Anti-glypican-3 human IgG1; constant region B3 (G1d with K439E); Fc variant; also called B3 variant; copies: 2 + 2) heavy: not shown light: DIVMTQSPLSLPVTPGEPASISCQASESLVHSNRNTYLHWYLQKPGQSPQLLIYKVSNRFSGVPDRFSGSGSGTDFTLKISRVEAEDVGVYYCSQNTHVPPTFGQGTKVEIE	-2 % of GpH7-B3/GpL16-k0
GpH7-B3/GpL16-k0 with N325P introduced into GpH7-B3 (antibody, human IgG1, Anti-glypican-3 human IgG1; constant region B3 (G1d with K439E); Fc variant; also called B3 variant; copies: 2 + 2) heavy: not shown light: DIVMTQSPLSLPVTPGEPASISCQASESLVHSNRNTYLHWYLQKPGQSPQLLIYKVSNRFSGVPDRFSGSGSGTDFTLKISRVEAEDVGVYYCSQNTHVPPTFGQGTKVEIE	0 % of GpH7-B3/GpL16-k0
GpH7-B3/GpL16-k0 with N325R introduced into GpH7-B3 (antibody, human IgG1, Anti-glypican-3 human IgG1; constant region B3 (G1d with K439E); Fc variant; also called B3 variant; copies: 2 + 2) heavy: not shown light: DIVMTQSPLSLPVTPGEPASISCQASESLVHSNRNTYLHWYLQKPGQSPQLLIYKVSNRFSGVPDRFSGSGSGTDFTLKISRVEAEDVGVYYCSQNTHVPPTFGQGTKVEIE	-1 % of GpH7-B3/GpL16-k0
GpH7-B3/GpL16-k0 with N325T introduced into GpH7-B3 (antibody, human IgG1, Anti-glypican-3 human IgG1; constant region B3 (G1d with K439E); Fc variant; also called B3 variant; copies: 2 + 2) heavy: not shown light: DIVMTQSPLSLPVTPGEPASISCQASESLVHSNRNTYLHWYLQKPGQSPQLLIYKVSNRFSGVPDRFSGSGSGTDFTLKISRVEAEDVGVYYCSQNTHVPPTFGQGTKVEIE	10 % of GpH7-B3/GpL16-k0
GpH7-B3/GpL16-k0 with N325V introduced into GpH7-B3 (antibody, human IgG1, Anti-glypican-3 human IgG1; constant region B3 (G1d with K439E); Fc variant; also called B3 variant; copies: 2 + 2) heavy: not shown light: DIVMTQSPLSLPVTPGEPASISCQASESLVHSNRNTYLHWYLQKPGQSPQLLIYKVSNRFSGVPDRFSGSGSGTDFTLKISRVEAEDVGVYYCSQNTHVPPTFGQGTKVEIE	2 % of GpH7-B3/GpL16-k0
GpH7-B3/GpL16-k0 with N325W introduced into GpH7-B3 (antibody, human IgG1, Anti-glypican-3 human IgG1; constant region B3 (G1d with K439E); Fc variant; also called B3 variant; copies: 2 + 2) heavy: not shown light: DIVMTQSPLSLPVTPGEPASISCQASESLVHSNRNTYLHWYLQKPGQSPQLLIYKVSNRFSGVPDRFSGSGSGTDFTLKISRVEAEDVGVYYCSQNTHVPPTFGQGTKVEIE	-2 % of GpH7-B3/GpL16-k0
GpH7-B3/GpL16-k0 with N325Y introduced into GpH7-B3 (antibody, human IgG1, Anti-glypican-3 human IgG1; constant region B3 (G1d with K439E); Fc variant; also called B3 variant; copies: 2 + 2) heavy: not shown light: DIVMTQSPLSLPVTPGEPASISCQASESLVHSNRNTYLHWYLQKPGQSPQLLIYKVSNRFSGVPDRFSGSGSGTDFTLKISRVEAEDVGVYYCSQNTHVPPTFGQGTKVEIE	5 % of GpH7-B3/GpL16-k0
GpH7-B3/GpL16-k0 with P329F introduced into GpH7-B3 (antibody, human IgG1, Anti-glypican-3 human IgG1; constant region B3 (G1d with K439E); Fc variant; also called B3 variant; copies: 2 + 2) heavy: not shown light: DIVMTQSPLSLPVTPGEPASISCQASESLVHSNRNTYLHWYLQKPGQSPQLLIYKVSNRFSGVPDRFSGSGSGTDFTLKISRVEAEDVGVYYCSQNTHVPPTFGQGTKVEIE	0 % of GpH7-B3/GpL16-k0
GpH7-B3/GpL16-k0 with P329H introduced into GpH7-B3 (antibody, human IgG1, Anti-glypican-3 human IgG1; constant region B3 (G1d with K439E); Fc variant; also called B3 variant; copies: 2 + 2) heavy: not shown light: DIVMTQSPLSLPVTPGEPASISCQASESLVHSNRNTYLHWYLQKPGQSPQLLIYKVSNRFSGVPDRFSGSGSGTDFTLKISRVEAEDVGVYYCSQNTHVPPTFGQGTKVEIE	-1 % of GpH7-B3/GpL16-k0
GpH7-B3/GpL16-k0 with P329I introduced into GpH7-B3 (antibody, human IgG1, Anti-glypican-3 human IgG1; constant region B3 (G1d with K439E); Fc variant; also called B3 variant; copies: 2 + 2) heavy: not shown light: DIVMTQSPLSLPVTPGEPASISCQASESLVHSNRNTYLHWYLQKPGQSPQLLIYKVSNRFSGVPDRFSGSGSGTDFTLKISRVEAEDVGVYYCSQNTHVPPTFGQGTKVEIE	2 % of GpH7-B3/GpL16-k0
